Experiment [1] deals with T1, human transferrin receptor (human, UniProt P02786 89-760, limits assumed).
T1 construct: also called hTfR; human TfR
The experiment can be described thus: ELISA, plate-coated human TfR, anti-human IgG-HRP detection; WT run beside VH Y27H. As for the experimental part: (§1) Human TfR (2.5 μg/ml) was coated on a 96-well half area plate (Corning) overnight at 4° C. Antibodies were prepared by diluting 5-fold from 50 nM to 0.64 pM. PBS (pH 7.5; same as blocking buffer) containing 5% skim milk was used for dilution. The plate was washed three times with PBS at pH 7.5, and then blocked with blocking buffer at room temperature for 2 hours and washed several more times. Various concentrations of anti-TfR antibodies were placed in the wells, and binding was induced for 2 hours. Unbound antibodies were then washed twice with PBST and twice with PBS.
(§2) Horseradish peroxidase (HRP)-conjugated anti-human IgG antibody (AB frontier) was added and incubated for 2 hours. After the antibody washing step, 50 μl of TMB solution was added and incubated at 37° C. for 20 minutes. Finally, an equal volume of stop solution was added and mixed, and then the absorbance was measured at 450 nm using an EMax Microplate Reader (Molecular Devices). Steps other than TMB incubation were performed at room temperature.

Experiment [2] concerns the target T1, human transferrin receptor. In words: ELISA, plate-coated human TfR, anti-human IgG-HRP detection; WT run beside VH Y99H. The method, then:
as §1, §2
(ELISA stands for enzyme-linked immunosorbent assay.)

In experiment [3] the target is T1, human transferrin receptor. The experiment can be described thus: ELISA, plate-coated human TfR, anti-human IgG-HRP detection; WT run beside VH Y98A. The method, then:
as §1, §2

In experiment [4] the target is T1, human transferrin receptor. The experiment can be described thus: ELISA, plate-coated human TfR, anti-human IgG-HRP detection; WT run beside VL Y94A. As for the experimental part: as §1, §2
Experiment [5] deals with T1, human transferrin receptor. In words: ELISA, plate-coated human TfR; mutant against WT. As for the experimental part: as §1, §2
The target of experiment [6] is T1, human transferrin receptor. In words: ELISA, plate-coated human TfR, anti-human IgG-HRP detection. The method, then: as §1, §2

Positions count from the first letter of the chain named. Names may count otherwise.

As usually defined, the EC50 is the concentration that produces a half-maximal response. Read a low EC50 as a more potent agent.

T1 sequence (P02786 89-760 limits assumed): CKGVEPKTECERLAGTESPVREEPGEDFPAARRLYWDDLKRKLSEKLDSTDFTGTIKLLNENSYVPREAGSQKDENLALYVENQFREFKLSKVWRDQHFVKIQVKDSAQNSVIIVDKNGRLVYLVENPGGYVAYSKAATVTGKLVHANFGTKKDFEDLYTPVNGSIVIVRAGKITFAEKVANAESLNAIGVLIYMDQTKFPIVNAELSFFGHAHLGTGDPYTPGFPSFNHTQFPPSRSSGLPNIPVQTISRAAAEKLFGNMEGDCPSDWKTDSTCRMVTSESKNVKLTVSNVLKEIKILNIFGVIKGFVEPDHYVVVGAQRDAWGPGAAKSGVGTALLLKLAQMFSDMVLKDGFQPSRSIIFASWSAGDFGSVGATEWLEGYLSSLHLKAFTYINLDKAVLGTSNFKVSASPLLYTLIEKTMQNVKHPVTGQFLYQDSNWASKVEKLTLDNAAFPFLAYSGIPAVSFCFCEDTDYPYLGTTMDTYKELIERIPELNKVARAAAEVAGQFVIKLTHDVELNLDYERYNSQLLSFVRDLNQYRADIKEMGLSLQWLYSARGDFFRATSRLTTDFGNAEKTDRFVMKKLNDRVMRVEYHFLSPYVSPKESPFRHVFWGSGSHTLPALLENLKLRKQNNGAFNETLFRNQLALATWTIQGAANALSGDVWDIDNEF

B1: anti-human transferrin receptor antibody 128.1, wild type (WT) (antibody, V domains shown)
VH: EVQLQQSGPELVKPGASMKISCKASGYSFTGYTMNWVKQSHGENLEWIGRINPHNGGTDYNQKFKDKAPLTVDKSSNTAYMELLSLTSEDSAVYYCARGYYYYSLDYWGQGTSVTVSS
VL: QIVLTQSPAIMSASPGEKVTMTCSASSSIDYIHWYQQKSGTSPKRWIYDTSKLASGVPARFSGSGSGTSYSLTISSMEPEDAATYYCHQRNSYPWTFGGGTRLEIR
notes: The ELISA detects with anti-human IgG-HRP; also called anti-hTfR antibody; anti-TfR(WT)
With B1, the half-maximal effective concentration (EC50) in experiment [1] came to 0.057 nM; in experiment [2], 0.048 nM; in experiment [3], 0.53 nM; in experiment [4], 0.44 nM.

B2: anti-human transferrin receptor antibody 128.1 with VH Y98A mutation (antibody, V domains shown)
VH: B1 VH with Y102A
VL: B1 VL
On to B2, for which, in experiment [5], the “Fold-increase of EC50 (Reduced rate of binding affinity)” value is more than 100 fold.

B3: anti-human transferrin receptor antibody 128.1 with VL Y94A mutation (antibody, V domains shown)
VH: B1 VH
VL: B1 VL with Y93A
In the case of B3, the half-maximal effective concentration (EC50) in experiment [6] worked out at 0.52 nM. The “Fold-increase of EC50 (Reduced rate of binding affinity)” value in experiment [5] came to 1.2 fold.

B4: anti-human transferrin receptor antibody 128.1 with VH Y27H mutation (antibody, V domains shown)
VH: B1 VH with Y27H
VL: B1 VL
notes: Same vector format as WT (human IgG constant region with myc-His tag, human kappa CL); also called anti-TfR(VH Y27H)
Turning to B4, a half-maximal response in experiment [6] (EC50) required 1.98 nM. For the same molecule, the “Fold-increase of EC50 (Reduced rate of binding affinity)” value in experiment [5] was found to be 35 fold.

B5: anti-human transferrin receptor antibody 128.1 with VH Y99H mutation (antibody, V domains shown)
VH: B1 VH with Y103H
VL: B1 VL
As to B5, the EC50 in experiment [6] came out at 0.44 nM. In experiment [5], the “Fold-increase of EC50 (Reduced rate of binding affinity)” value amounted to 9.2 fold.

The values are drawn from patent publication US20240317877A1 (IUCF HYU INDUSTRY UNIVERSITY COOPERATION FOUNDATION HANYANG …, published 2024).
